Publication PMC9482650, “Quantitative fragmentomics allow affinity mapping of interactomes” (Nature Communications, 2022)

T1: DFNB31_3, Q9P202
T1 sequence (Q9P202 811-907, limits assumed, looked up): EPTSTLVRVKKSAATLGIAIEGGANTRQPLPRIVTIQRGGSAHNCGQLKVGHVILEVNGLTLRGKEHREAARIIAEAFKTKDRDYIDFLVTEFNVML

T2: DVL3, Q92997
T2 sequence (Q92997 244-331, limits assumed, looked up): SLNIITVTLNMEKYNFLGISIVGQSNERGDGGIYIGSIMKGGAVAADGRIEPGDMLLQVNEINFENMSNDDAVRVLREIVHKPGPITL

T3: GRIP1_2, Q9Y3R0
T3 sequence (Q9Y3R0 145-248, limits assumed, looked up): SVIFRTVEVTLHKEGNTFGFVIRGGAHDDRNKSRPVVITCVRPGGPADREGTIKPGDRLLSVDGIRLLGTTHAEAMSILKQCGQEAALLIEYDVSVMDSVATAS

T4: GRIP1_3, Q9Y3R0
T4 sequence (Q9Y3R0 247-346, limits assumed, looked up): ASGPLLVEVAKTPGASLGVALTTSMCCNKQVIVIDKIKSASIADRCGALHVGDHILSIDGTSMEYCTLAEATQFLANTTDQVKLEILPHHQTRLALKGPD

T5: GRIP1_5, Q9Y3R0
T5 sequence (Q9Y3R0 568-668, limits assumed, looked up): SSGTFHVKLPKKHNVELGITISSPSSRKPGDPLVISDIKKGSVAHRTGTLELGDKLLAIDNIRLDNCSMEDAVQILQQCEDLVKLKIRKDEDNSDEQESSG

T6: LIN7A, O14910
T6 sequence (O14910 103-200, limits assumed, looked up): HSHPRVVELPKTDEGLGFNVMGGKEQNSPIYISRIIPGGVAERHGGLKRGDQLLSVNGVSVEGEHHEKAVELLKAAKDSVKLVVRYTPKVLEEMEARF

T7: PDZRN3_1, Q9UPQ7
T7 sequence (Q9UPQ7 244-349, limits assumed, looked up): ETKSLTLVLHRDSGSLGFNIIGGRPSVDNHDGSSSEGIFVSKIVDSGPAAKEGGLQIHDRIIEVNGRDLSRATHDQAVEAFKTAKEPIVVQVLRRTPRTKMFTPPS

T8: RADIL, Q96JH8
T8 sequence (Q96JH8 971-1071, limits assumed, looked up): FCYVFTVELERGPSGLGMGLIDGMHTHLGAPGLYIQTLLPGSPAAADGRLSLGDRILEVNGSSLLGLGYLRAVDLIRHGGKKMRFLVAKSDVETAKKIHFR

T9: RAPGEF6, Q8TEU7
T9 sequence (Q8TEU7 525-625, limits assumed, looked up): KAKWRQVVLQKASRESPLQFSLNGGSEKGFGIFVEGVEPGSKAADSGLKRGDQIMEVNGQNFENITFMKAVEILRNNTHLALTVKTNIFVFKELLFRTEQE

T10: RHPN1, Q8TCX5
T10 sequence (Q8TCX5 508-602, limits assumed, looked up): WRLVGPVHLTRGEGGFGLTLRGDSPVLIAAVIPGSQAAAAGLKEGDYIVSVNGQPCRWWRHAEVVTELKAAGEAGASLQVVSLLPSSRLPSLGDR

B1: CRB2, Q5IJ48 (peptide)
chain: LKVPPEERLI
B2: RAB9A, P51151 (peptide)
chain: RKPKPSSSCC
B3: ABCC6, O95255 (peptide)
chain: YRLAQESGLV
B4: SLC2A7, Q6PXP3 (peptide)
chain: TASPAKETSF

Legend:
Test in all cases: holdup assay
Parameters in all cases: key: below the threshold = too weak to quantify, mostly under pKd 3.1 to 4
Conditions in all cases: plain residues with an end cap or a label only (N-terminal biotin on a linker: ado-ado)
DFNB31_3, Q9P202 = biological target: T1, DFNB31_3, Q9P202
DLG4_2, P78352 = biological target: DLG4_2, P78352
Chain of DLG4_2, P78352 (P78352 155-259): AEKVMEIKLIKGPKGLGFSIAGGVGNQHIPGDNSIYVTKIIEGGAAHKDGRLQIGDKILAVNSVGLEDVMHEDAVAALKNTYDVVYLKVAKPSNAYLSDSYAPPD

DLG4_3, P78352 = biological target: DLG4_3, P78352
Chain of DLG4_3, P78352 (P78352 306-403): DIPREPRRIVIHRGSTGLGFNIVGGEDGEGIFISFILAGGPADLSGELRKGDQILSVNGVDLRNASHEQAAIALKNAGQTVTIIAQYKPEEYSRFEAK

DVL3, Q92997 = biological target: T2, DVL3, Q92997
GIPC2, Q8TF65 = biological target: GIPC2, Q8TF65
Chain of GIPC2, Q8TF65 (Q8TF65 112-203): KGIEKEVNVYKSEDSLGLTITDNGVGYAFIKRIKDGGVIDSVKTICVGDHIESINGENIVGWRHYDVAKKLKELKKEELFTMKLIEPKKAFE

GORASP1, Q9BQQ3 = biological target: GORASP1, Q9BQQ3
Chain of GORASP1, Q9BQQ3 (Q9BQQ3 1-208): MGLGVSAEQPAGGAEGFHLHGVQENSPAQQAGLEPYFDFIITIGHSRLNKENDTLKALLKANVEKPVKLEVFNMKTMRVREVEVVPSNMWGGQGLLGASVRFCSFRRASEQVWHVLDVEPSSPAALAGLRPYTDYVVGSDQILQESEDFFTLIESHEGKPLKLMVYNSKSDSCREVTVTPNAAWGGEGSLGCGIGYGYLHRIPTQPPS

GORASP2, Q9H8Y8 = biological target: GORASP2, Q9H8Y8
GRIP1_2, Q9Y3R0 = biological target: T3, GRIP1_2, Q9Y3R0
GRIP1_3, Q9Y3R0 = biological target: T4, GRIP1_3, Q9Y3R0
GRIP1_5, Q9Y3R0 = biological target: T5, GRIP1_5, Q9Y3R0
HTRA1, Q92743 = biological target: HTRA1, Q92743
Chain of HTRA1, Q92743 (Q92743 360-477): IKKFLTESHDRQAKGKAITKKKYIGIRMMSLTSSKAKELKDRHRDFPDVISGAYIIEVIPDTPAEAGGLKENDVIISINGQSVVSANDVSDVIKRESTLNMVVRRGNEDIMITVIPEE

Inadl_10, Q8NI35 = biological target: Inadl_10, Q8NI35
Chain of Inadl_10, Q8NI35 (Q8NI35 1673-1763): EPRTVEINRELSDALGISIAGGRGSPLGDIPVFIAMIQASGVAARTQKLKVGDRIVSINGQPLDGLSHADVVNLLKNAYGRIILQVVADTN

LIN7A, O14910 = biological target: T6, LIN7A, O14910
LNX1_1, Q8TBB1 = biological target: LNX1_1, Q8TBB1
Chain of LNX1_1, Q8TBB1 (Q8TBB1 261-371): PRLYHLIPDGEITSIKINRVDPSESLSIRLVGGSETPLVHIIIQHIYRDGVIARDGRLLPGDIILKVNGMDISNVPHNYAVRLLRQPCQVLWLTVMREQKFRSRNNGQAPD

LNX1_3, Q8TBB1 = biological target: LNX1_3, Q8TBB1
Chain of LNX1_3, Q8TBB1 (Q8TBB1 500-596): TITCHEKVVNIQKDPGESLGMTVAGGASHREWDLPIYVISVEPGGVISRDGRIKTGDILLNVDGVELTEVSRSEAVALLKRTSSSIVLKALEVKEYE

MAGI1_1, Q96QZ7 = biological target: MAGI1_1, Q96QZ7
Chain of MAGI1_1, Q96QZ7 (Q96QZ7 1-106): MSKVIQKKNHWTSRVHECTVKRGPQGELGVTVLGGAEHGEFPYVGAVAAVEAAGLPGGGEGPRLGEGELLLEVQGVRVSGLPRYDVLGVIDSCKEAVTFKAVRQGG

MAST2, Q6P0Q8 = biological target: MAST2, Q6P0Q8
Chain of MAST2, Q6P0Q8 (Q6P0Q8 1099-1202): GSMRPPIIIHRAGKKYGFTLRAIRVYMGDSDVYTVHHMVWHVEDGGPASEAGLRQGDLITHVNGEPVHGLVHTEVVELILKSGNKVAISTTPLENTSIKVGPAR

NHERF4_2, Q86UT5 = biological target: NHERF4_2, Q86UT5
Chain of NHERF4_2, Q86UT5 (Q86UT5 220-308): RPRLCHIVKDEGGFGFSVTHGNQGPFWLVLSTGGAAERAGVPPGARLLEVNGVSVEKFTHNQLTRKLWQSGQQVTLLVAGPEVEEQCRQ

NHERF4_4, Q86UT5 = biological target: NHERF4_4, Q86UT5
Chain of NHERF4_4, Q86UT5 (Q86UT5 464-550): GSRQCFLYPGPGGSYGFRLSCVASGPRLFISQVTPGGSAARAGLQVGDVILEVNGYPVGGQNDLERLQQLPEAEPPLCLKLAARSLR

PDLIM1, O00151 = biological target: PDLIM1, O00151
Chain of PDLIM1, O00151 (O00151 1-87): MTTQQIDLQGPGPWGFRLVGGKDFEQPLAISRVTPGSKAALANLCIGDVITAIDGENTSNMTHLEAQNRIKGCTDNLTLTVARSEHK

PDZRN3_1, Q9UPQ7 = biological target: T7, PDZRN3_1, Q9UPQ7
PDZRN4_1, Q6ZMN7 = biological target: PDZRN4_1, Q6ZMN7
Chain of PDZRN4_1, Q6ZMN7 (Q6ZMN7 213-318): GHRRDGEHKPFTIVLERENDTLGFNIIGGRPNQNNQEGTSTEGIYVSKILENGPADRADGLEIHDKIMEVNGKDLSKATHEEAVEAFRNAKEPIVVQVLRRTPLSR

RADIL, Q96JH8 = biological target: T8, RADIL, Q96JH8
RAPGEF6, Q8TEU7 = biological target: T9, RAPGEF6, Q8TEU7
RHPN1, Q8TCX5 = biological target: T10, RHPN1, Q8TCX5
SCRIB_1, Q14160 = biological target: SCRIB_1, Q14160
Chain of SCRIB_1, Q14160 (Q14160 718-814): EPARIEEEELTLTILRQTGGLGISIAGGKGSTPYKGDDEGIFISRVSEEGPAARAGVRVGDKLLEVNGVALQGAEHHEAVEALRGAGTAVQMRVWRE

TJP2_1, Q9UDY2 = biological target: TJP2_1, Q9UDY2
Chain of TJP2_1, Q9UDY2 (Q9UDY2 24-128): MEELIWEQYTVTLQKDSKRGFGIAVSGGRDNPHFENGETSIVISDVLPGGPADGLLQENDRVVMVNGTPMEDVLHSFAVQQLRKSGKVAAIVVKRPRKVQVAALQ

Binder	pKd (DFNB31_3, Q9P202)	pKd (DLG4_2, P78352)	pKd (DLG4_3, P78352)	pKd (DVL3, Q92997)	pKd (GIPC2, Q8TF65)	pKd (GORASP1, Q9BQQ3)	pKd (GORASP2, Q9H8Y8)	pKd (GRIP1_2, Q9Y3R0)	pKd (GRIP1_3, Q9Y3R0)	pKd (GRIP1_5, Q9Y3R0)	pKd (HTRA1, Q92743)	pKd (Inadl_10, Q8NI35)	pKd (LIN7A, O14910)	pKd (LNX1_1, Q8TBB1)	pKd (LNX1_3, Q8TBB1)	pKd (MAGI1_1, Q96QZ7)	pKd (MAST2, Q6P0Q8)	pKd (NHERF4_2, Q86UT5)	pKd (NHERF4_4, Q86UT5)	pKd (PDLIM1, O00151)	further results
B1	below the threshold	below the threshold	below the threshold	below the threshold	below the threshold	below the threshold	3.62	below the threshold	below the threshold	below the threshold	4.18	below the threshold	below the threshold	below the threshold	below the threshold	below the threshold	4.3	below the threshold	below the threshold	below the threshold	pKd (PDZRN3_1, Q9UPQ7): below the threshold; pKd (PDZRN4_1, Q6ZMN7): below the threshold; pKd (RADIL, Q96JH8): below the threshold; pKd (RAPGEF6, Q8TEU7): below the threshold; pKd (RHPN1, Q8TCX5): below the threshold; pKd (SCRIB_1, Q14160): below the threshold; pKd (TJP2_1, Q9UDY2): below the threshold
B2	3.9	below the threshold	below the threshold	below the threshold	3.73	below the threshold	below the threshold	below the threshold	below the threshold	below the threshold	below the threshold	below the threshold	below the threshold	below the threshold	below the threshold	below the threshold	3.69	below the threshold	below the threshold	below the threshold	pKd (PDZRN3_1, Q9UPQ7): below the threshold; pKd (PDZRN4_1, Q6ZMN7): below the threshold; pKd (RADIL, Q96JH8): below the threshold; pKd (RAPGEF6, Q8TEU7): below the threshold; pKd (RHPN1, Q8TCX5): below the threshold; pKd (SCRIB_1, Q14160): below the threshold; pKd (TJP2_1, Q9UDY2): below the threshold
B3	3.94	3.55	below the threshold	below the threshold	below the threshold	below the threshold	below the threshold	below the threshold	below the threshold	below the threshold	3.98	below the threshold	below the threshold	below the threshold	below the threshold	below the threshold	4.1	below the threshold	below the threshold	below the threshold	pKd (PDZRN3_1, Q9UPQ7): below the threshold; pKd (PDZRN4_1, Q6ZMN7): below the threshold; pKd (RADIL, Q96JH8): 4.22; pKd (RAPGEF6, Q8TEU7): below the threshold; pKd (RHPN1, Q8TCX5): below the threshold; pKd (SCRIB_1, Q14160): below the threshold; pKd (TJP2_1, Q9UDY2): below the threshold
B4	3.88	4.11	below the threshold	below the threshold	below the threshold	below the threshold	below the threshold	below the threshold	below the threshold	below the threshold	below the threshold	below the threshold	3.77	below the threshold	below the threshold	below the threshold	5.21	below the threshold	below the threshold	below the threshold	pKd (PDZRN3_1, Q9UPQ7): below the threshold; pKd (PDZRN4_1, Q6ZMN7): below the threshold; pKd (RADIL, Q96JH8): below the threshold; pKd (RAPGEF6, Q8TEU7): below the threshold; pKd (RHPN1, Q8TCX5): 3.97; pKd (SCRIB_1, Q14160): 4.56; pKd (TJP2_1, Q9UDY2): below the threshold
